Target: Isolated Mac-1 (αMβ2, CD11b/CD18) (UniProt P11215 17-1152; P05107 23-769)
Experiment: ELISA

IC50: ~175 nM
B1: Recombinant soluble mouse RAGE (receptor)
chain: GQNITARIGEPLVLSCKGAPKKPPQQLEWKLNTGRTEAWKVLSPQGGPWDSVARILPNGSLLLPATGIVDEGTFRCRATNRRGKEVKSNYRVRVYQIPGKPEIVDPASELTASVPNKVGTCVSEGSYPAGTLSWHLDGKLLIPDGKETLVKEETRRHPETGLFTLRSELTVIPTQGGTHPTFSCSFSLGLPRRRPLNTAPIQLRVREPGPPEGIQLLVEPEGGIVAPGGTVTLTCAISAQPPPQVHWIKDGAPLPLAPSPVLLLPEVGHEDEGTYSCVATHPSHGPQESPPVSIRVTETGDEGPAEGSVGESGLGTLA
